Assay [1] addresses T1, CD16A V158 (UniProt P08637 17-208, limits assumed).
T1 construct: Only the name and allotype are printed; also called FcγRIIIA
The assay can be described thus: assay not named in Table 4.

For assay [2], the target named is T2, CD16A F158 (UniProt P08637 17-208, limits assumed).
T2 construct: Only the name and allotype are printed; also called FcγRIIIA
Put plainly: assay not named in Table 4.

Assay [3] addresses T3, CD32B (UniProt P31994 43-217, limits assumed).
T3 construct: Only the name is printed; also called FcγRIIB
T3 sequence (looked up): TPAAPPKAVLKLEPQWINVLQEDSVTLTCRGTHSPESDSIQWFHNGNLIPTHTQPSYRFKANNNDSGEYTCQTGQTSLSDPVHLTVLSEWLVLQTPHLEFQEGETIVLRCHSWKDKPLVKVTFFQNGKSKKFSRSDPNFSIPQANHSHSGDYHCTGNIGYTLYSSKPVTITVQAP
Put plainly: assay not named in Table 4.

Assay [4] deals with T3, CD32B. Put plainly: assay not named in Table 4; cell stands under CD16A F158 but fits CD32B (0.94/1.07 = 0.88).

Numbering of substitutions follows the chain as printed. In names and notes the source's numbering stands.

T1 sequence (P08637 17-208 F176V limits assumed): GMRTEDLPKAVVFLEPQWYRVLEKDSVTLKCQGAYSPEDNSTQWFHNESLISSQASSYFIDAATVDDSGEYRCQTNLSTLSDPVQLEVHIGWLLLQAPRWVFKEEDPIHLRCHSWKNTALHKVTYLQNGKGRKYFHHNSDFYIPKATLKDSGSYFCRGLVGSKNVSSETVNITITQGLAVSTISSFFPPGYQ
T2 sequence (P08637 17-208 limits assumed): as the sequence (P08637 17-208 F176V limits assumed) above, with V160F counted along it

Turning to “Fc variant V284M R292P K370N (from UniProt P01857 104-330)”, the binding relative to wild-type Fc in assay [1] came out at 1.14; in assay [2] it was 1.37; in assay [3], 0.37.

B1: Fc variant D270E G316D P396L R416G (other, UniProt P01857-1 104-330, looked up)
chain: DKTHTCPPCPAPELLGGPSVFLFPPKPKDTLMISRTPEVTCVVVDVSHEEPEVKFNWYVDGVEVHNAKTKPREEQYNSTYRVVSVLTVLHQDWLNDKEYKCKVSNKALPAPIEKTISKAKGQPREPQVYTLPPSRDELTKNQVSLTCLVKGFYPSDIAVEWESNGQPENNYKTTPLVLDSDGSFFLYSKLTVDKSGWQQGNVFSCSVMHEALHNHYTQKSLSLSPGK
notes: domain: Fc; also called D270E P396L G316D R416G
Regarding B1, the “binding relative to wild-type Fc” value in assay [3] and in assay [4] was 1.07 throughout.

B2: Fc variant D270E P396L Q419H (other, UniProt P01857-1 104-330, looked up)
chain: B1 chain with D96G, G196R, Q199H
notes: domain: Fc
As to B2, the “binding relative to wild-type Fc” value in assay [1] is 1.64; in assay [3] it was 0.68.

B3: Fc variant D270E G316D R416G (other, UniProt P01857-1 104-330, looked up)
chain: B1 chain with L176P
notes: domain: Fc
In the case of B3, the “binding relative to wild-type Fc” value is 2.18 in assay [1], 2.49 in assay [2] and 0.78 in assay [3].

B4: Fc variant F243L R292P V305I (other, UniProt P01857-1 104-330, looked up)
chain: B1 chain with F23L, E50D, R72P, V85I, D96G, L176P, G196R
notes: domain: Fc; also called Mutant 13*
As for B4, the “binding relative to wild-type Fc” value in assay [1] amounted to 2.56; in assay [2], 1.43.

B5: Fc variant F243L P247L N421K (other, UniProt P01857-1 104-330, looked up)
chain: B1 chain with F23L, P27L, E50D, D96G, L176P, G196R, N201K
notes: domain: Fc
As to B5, the “binding relative to wild-type Fc” value in assay [1] amounted to 1.89; in assay [2], 1.71; in assay [3], 0.17.

B6: Fc variant F243L P247L D270E N421K (other, UniProt P01857-1 104-330, looked up)
chain: B1 chain with F23L, P27L, D96G, L176P, G196R, N201K
notes: domain: Fc
In the case of B6, the “binding relative to wild-type Fc” value in assay [1] was 2.3; in assay [2] it was 3.45; in assay [3] it was 0.32.

B7: Fc variant R292P V305I P396L (other, UniProt P01857-1 104-330, looked up)
chain: B1 chain with E50D, R72P, V85I, D96G, G196R
notes: domain: Fc; also called Mutant 15
On to B7, for which the entries for the “binding relative to wild-type Fc” value in assay [1], in assay [2] and in assay [3] were 1.85, 1.9 and 0.92, respectively.

B8: Fc variant R255L D270E R292G P396L (other, UniProt P01857-1 104-330, looked up)
chain: B1 chain with R35L, R72G, D96G, G196R
notes: domain: Fc
Consider B8, for which, in assay [3], the “binding relative to wild-type Fc” value was 0.65.

B9: Fc variant F243L R255L D270E P396L (other, UniProt P01857-1 104-330, looked up)
chain: B1 chain with F23L, R35L, D96G, G196R
notes: domain: Fc
Turning to B9, the “binding relative to wild-type Fc” value in assay [1] stood at 1.75; in assay [2] it was 1.64; in assay [3], 0.38.

B10: Fc variant F243L D270E G316D R416G (other, UniProt P01857-1 104-330, looked up)
chain: B1 chain with F23L, L176P
notes: domain: Fc
Take B10: the “binding relative to wild-type Fc” value was 1.5 in assay [1], 1.34 in assay [2] and 0.2 in assay [3].

B11: Fc variant F243L D270E K392T P396L (other, UniProt P01857-1 104-330, looked up)
chain: B1 chain with F23L, D96G, K172T, G196R
notes: domain: Fc
In the case of B11, the “binding relative to wild-type Fc” value is 3.16 in assay [1], 2.44 in assay [2] and 0.44 in assay [3].

B12: Fc variant F243L R292P V305I P396L (other, UniProt P01857-1 104-330, looked up)
chain: B1 chain with F23L, E50D, R72P, V85I, D96G, G196R
notes: domain: Fc; also called Mutant 17
Consider B12, for which the entries for the “binding relative to wild-type Fc” value in assay [1], in assay [2] and in assay [3] were 5.37, 2.53 and 0.4, respectively.

B13: Fc variant P247L D270E N421K (other, UniProt P01857-1 104-330, looked up)
chain: B1 chain with P27L, D96G, L176P, G196R, N201K
notes: domain: Fc
As for B13, the figures for the “binding relative to wild-type Fc” value in assay [1], in assay [2] and in assay [3] were 1.89, 2.46 and 0.58, respectively.

B14: Fc variant F243L R292P Y300L V305I P396L (other, UniProt P01857-1 104-330, looked up)
chain: B1 chain with F23L, E50D, R72P, Y80L, V85I, D96G, G196R
notes: domain: Fc; also called Mutant 18
For the molecule B14, the “binding relative to wild-type Fc” value in assay [1] worked out at 10.1; in assay [2], 8.25; in assay [3], 1.38.

B15: Fc variant F243L R292P Y300L P396L (other, UniProt P01857-1 104-330, looked up)
chain: B1 chain with F23L, E50D, R72P, Y80L, D96G, G196R
notes: domain: Fc; also called Mutant 16
Consider B15, for which the “binding relative to wild-type Fc” value is 10.1 in assay [1], 5.62 in assay [2] and 1.07 in assay [3].

B16: Fc variant F243L D270E P396L Q419H (other, UniProt P01857-1 104-330, looked up)
chain: B1 chain with F23L, D96G, G196R, Q199H
notes: domain: Fc
Take B16: the “binding relative to wild-type Fc” value in assay [1] is 1.46; in assay [2], 1.15; in assay [3], 0.26.

B17: Fc variant R255L D270E Y300L P396L (other, UniProt P01857-1 104-330, looked up)
chain: B1 chain with R35L, Y80L, D96G, G196R
notes: domain: Fc
Regarding B17, the “binding relative to wild-type Fc” value in assay [1] was 1.52; in assay [2] it was 1.74; in assay [3], 0.87.

B18: Fc variant D270E K392T P396L (other, UniProt P01857-1 104-330, looked up)
chain: B1 chain with D96G, K172T, G196R
notes: domain: Fc
As for B18, the “binding relative to wild-type Fc” value in assay [1] was determined as 1.81; in assay [2] it was 2.28; in assay [3], 0.79.

B19: Fc variant F243I R292P Y300L V305I P396L (other, UniProt P01857-1 104-330, looked up)
chain: B1 chain with F23I, E50D, R72P, Y80L, V85I, D96G, G196R
notes: domain: Fc; Written as printed (F243I); may be a misprint of F243L
For the molecule B19, the “binding relative to wild-type Fc” value in assay [2] is 3.12; in assay [3], 1.05.

B20: Fc variant R255L D270E P396L (other, UniProt P01857-1 104-330, looked up)
chain: B1 chain with R35L, D96G, G196R
notes: domain: Fc
Turning to B20, the “binding relative to wild-type Fc” value came to 1.34 in assay [1], 1.65 in assay [2] and 0.87 in assay [3].

These data come from patent publication US20180051079A1 (MacroGenics, published 2018).
